B1: Electrogenic sodium bicarbonate cotransporter 1 (Homo sapiens), Q9Y6R1-1 (parent)
chain: MEDEAVLDRGASFLKHVCDEEEVEGHHTIYIGVHVPKSYRRRRRHKRKTGHKEKKEKERISENYSDKSDIENADESSSSILKPLISPAAERIRFILGEEDDSPAPPQLFTELDELLAVDGQEMEWKETARWIKFEEKVEQGGERWSKPHVATLSLHSLFELRTCMEKGSIMLDREASSLPQLVEMIVDHQIETGLLKPELKDKVTYTLLRKHRHQTKKSNLRSLADIGKTVSSASRMFTNPDNGSPAMTHRNLTSSSLNDISDKPEKDQLKNKFMKKLPRDAEASNVLVGEVDFLDTPFIAFVRLQQAVMLGALTEVPVPTRFLFILLGPKGKAKSYHEIGRAIATLMSDEVFHDIAYKAKDRHDLIAGIDEFLDEVIVLPPGEWDPAIRIEPPKSLPSSDKRKNMYSGGENVQMNGDTPHDGGHGGGGHGDCEELQRTGRFCGGLIKDIKRKAPFFASDFYDALNIQALSAILFIYLATVTNAITFGGLLGDATDNMQGVLESFLGTAVSGAIFCLFAGQPLTILSSTGPVLVFERLLFNFSKDNNFDYLEFRLWIGLWSAFLCLILVATDASFLVQYFTRFTEEGFSSLISFIFIYDAFKKMIKLADYYPINSNFKVGYNTLFSCTCVPPDPANISISNDTTLAPEYLPTMSSTDMYHNTTFDWAFLSKKECSKYGGNLVGNNCNFVPDITLMSFILFLGTYTSSMALKKFKTSPYFPTTARKLISDFAIILSILIFCVIDALVGVDTPKLIVPSEFKPTSPNRGWFVPPFGENPWWVCLAAAIPALLVTILIFMDQQITAVIVNRKEHKLKKGAGYHLDLFWVAILMVICSLMALPWYVAATVISIAHIDSLKMETETSAPGEQPKFLGVREQRVTGTLVFILTGLSVFMAPILKFIPMPVLYGVFLYMGVASLNGVQFMDRLKLLLMPLKHQPDFIYLRHVPLRRVHLFTFLQVLCLALLWILKSTVAAIIFPVMILALVAVRKGMDYLFSQHDLSFLDDVIPEKDKKKKEDEKKKKKKKGSLDSDNDDSDCPYSEKVPSIKIPMDIMEQQPFLSDSKPSDRERSPTFLERHTSC
partner: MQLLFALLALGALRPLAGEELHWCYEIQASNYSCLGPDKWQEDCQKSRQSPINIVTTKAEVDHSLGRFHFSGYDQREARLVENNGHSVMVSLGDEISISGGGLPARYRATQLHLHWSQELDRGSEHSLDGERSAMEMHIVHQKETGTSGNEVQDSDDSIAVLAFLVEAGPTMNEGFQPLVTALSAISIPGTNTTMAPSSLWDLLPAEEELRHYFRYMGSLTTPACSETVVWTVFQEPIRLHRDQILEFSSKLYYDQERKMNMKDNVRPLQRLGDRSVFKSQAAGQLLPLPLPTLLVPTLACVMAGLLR

Variants of: B1
Conditions: with cah4_rabit CA4, P48283

G767T was tested. Which “effect of a mutation on the interaction” value did it give?
The value was “disrupting interaction”.
